Results published in patent US20190161786A1.

Target: wild-type Savinase (Bacillus lentus protease of SEQ ID NO: 3) (Bacillus lentus) (UniProt P41362)
Test: cell-based or functional assay

UniProt P41362, sequence (P41362 28-380, tags left off): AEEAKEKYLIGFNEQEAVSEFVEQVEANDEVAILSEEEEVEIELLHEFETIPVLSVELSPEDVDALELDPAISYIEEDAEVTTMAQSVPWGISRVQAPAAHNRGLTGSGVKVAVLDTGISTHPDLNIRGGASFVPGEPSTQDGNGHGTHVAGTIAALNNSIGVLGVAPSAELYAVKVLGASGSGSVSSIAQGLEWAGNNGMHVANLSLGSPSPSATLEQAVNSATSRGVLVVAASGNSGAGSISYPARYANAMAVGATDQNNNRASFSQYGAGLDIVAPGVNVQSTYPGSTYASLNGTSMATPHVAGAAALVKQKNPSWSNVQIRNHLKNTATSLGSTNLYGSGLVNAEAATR

amount of released amplicon A (qPCR of DNA released from alpha-casein-coated microspheres by the expressed protease), compared to the amount released in the absence of ovoinhibitor: 68%
Substance: ovoinhibitor isolated from hen egg white (from UniProt P10184 69-517)
